Measurements from US11155596B2, “Polypeptide” (AFFIBODY AB, priority 2016, dated 2021).

How the values were obtained:
[1] = Circular dichroism (CD) spectroscopy, variable temperature measurement; type: physicochemical; settings: 1 mM EDTA, pH 7.2; for Tm (° C.): 0.5 mg/ml in 20 mM HEPES, VTM 20 to 90° C. at 221 nm; for refolding, CD spectra before and after heating to 90° C.: 20 mM HEPES
Procedure: Circular dichroism (CD) spectroscopy analysis: Two purified Z variants with a C-terminal cysteine, Z15168-Cys (SEQ ID NO:809) and Z15169-Cys (SEQ ID NO:810), were diluted to 0.5 mg/ml in 20 mM HEPES, 1 mM EDTA, pH 7.2. For each diluted Z variant, a CD spectrum at 250-195 nm was obtained at 20° C. In addition, a variable temperature measurement (VTM) was performed to determine the melting temperature (Tm). In the VTM, the absorbance was measured at 221 nm while the temperature was raised from 20 to 90° C., with a temperature slope of 5° C./min. A new CD spectrum was obtained at 20° C. after the heating procedure in order to study the refolding ability of the Z variants. The CD measurements were performed on a Jasco J-810 spectropolarimeter (Jasco Scandinavia AB) using a cell with an optical path length of 1 mm.
Circular dichroism (CD) spectroscopy analysis: A subset of the purified Hiss-tagged Z variants were analyzed by CD spectroscopy as described in Example 3, but with the exceptions that the analysis buffer was PBS and that the temperature was raised to 80° C. in the VTM.

[2] = tested on: MDA-MB-231 cells co-cultivated with PBMC; experiment: Co-culture of MDA-MB-231 and PBMC (mixed lymphocyte assay); type: cell-based; settings: six days co-culture with PBMC; 200-0.064 nM
Procedure: Co-culture of MDA-MB-231 and PBMC: A mixed lymphocyte assay was used to analyze if the Ipi-based complexes could affect proliferation or the cytotoxic effect of T-cells and thereby increase the elimination of cancer cells. Herein, peripheral blood mononuclear cells (PBMC) and MDA-MB-231 cells were co-cultivated for six days and the number of T-cells and cancer cells were assessed. 20000 MDA-MB-231 cells, cultivated in DMEM containing 10% FBS, were pipetted per well of a flat-bottomed 96-well plate and were left to adhere to the bottom of the well by incubation at 37° C. in a humidified 5% CO2 atmosphere. Day 2 of the experiment, serial dilutions (200-0.064 nM) of the Ipi-based complexes were prepared in a separate plate using RPM11640 with L-glut (Lonza) supplemented with 10% FCS, and 1% Pen-Strep (Lonza, cat. no. DE17-603E). The DMEM medium was discarded from the MDA-MB-231 cells and 100 μl of the diluted complexes were added. PBMC were prepared form a buffy coat using Ficoll Paque PLUS (GE Healthcare, cat no. 17-1440-02). In brief, the buffy coat was diluted 2× in PBS. […] The cells were counted and adjusted to 1 million cells per ml in supplemented RPMI medium. […] At day 7 of the experiment, the number of MDA-MD-231 cells and CD3+ T-cells were counted by FACS. […]

[3] = tested on: PD-L1 expressing MDA-MB-231 cells; experiment: Cell binding analysis by FACS, MDA-MB-231 cells; type: cell-based; settings: 0.625 μg/ml complex or antibody (anti-PD-L1 antibody 1 μg/ml), negative control 69
Procedure: Cells incubated with buffer alone were used as negative controls. The cells were incubated for 1 h at 8° C. in the dark, washed twice with 100 μl staining buffer, and resuspended in 100 μl of staining buffer containing 2.5 μg/ml of a goat-anti-human IgG-Alexa488 (Molecular Probes, cat. no. A11013) or, for cells stained with the positive control antibody, goat anti-mouse IgG-Alexa647 antibody (Life Technologies, cat. No. A21236). The cells were incubated for 1 h at 8° C. in the dark, washed twice with 100 μl staining buffer and resuspended in 300 μl of staining buffer. Data from 10,000 cells were obtained using a FACS Calibur ([…]) and the data was analyzed using Flowing software 2.5.0 (Turku University). Mean fluorescence intensity (MFI) was used as a read out of binding capacity.

Substance: Z15169-Cys: Z13156 mutated to start with AE instead of VD, with C-terminal addition of VDC
- Tm (° C.) [1]: 58 °C
- refolding, CD spectra before and after heating to 90° C. [1]: Reversible folding

Substance: Z15168-Cys: Z13091 mutated to start with AE instead of VD, with C-terminal addition of VDC
- Tm (° C.) [1]: 50 °C
- refolding, CD spectra before and after heating to 90° C. [1]: Reversible folding

Substance: ipilimumab [reference compound]
- number of MDA-MB231 cells [2]: did not induce a concentration dependent decrease of the cancer cells

Substance: Lam: control antibody having the same CDR sequences and specificity as PD-1 targeting pembrolizumab; SEQ ID NO:815 and 816
- MFI [3]: 62
